The text below walks through data of patent US20160039867A1 (COMPLIX, published 2016).

Data set [1] deals with the molecule itself. In words: CD thermal unfolding curve (222 nm, 292 microM peptide) fitted to a monomer-trimer equilibrium; self-association of the peptide. Here is the method: The said synthesized peptide was dissolved at a concentration of 292 microM in 20 mM phosphate buffer (PBS), 150 mM NaCl, pH 7.2. The CD spectra were measured between […], at 5° C. and 90° C. (FIG. 3). The spectrum at 5° C. was indicative of a high alpha-helical secondary structure content, in agreement with the expectation that all heptad regions, but not all of the flanking residues, would assemble as alpha-helical coiled coils.
In order to analyze whether the temperature-induced transition between helical and non-helical states was reversible, a forward (up) and backward (down) thermal scan was performed on the same sample, by recording the CD signal at […] as a function of temperature at a scanning rate of about 1 degree Celsius per minute (FIG. 4). It was observed that the up and down scans almost perfectly coincided, thereby confirming the quantitative unfolding and refolding of the peptides in the sample.
FIG. 5 represents fitting of a theoretic equation for trimeric association to experimental data. The experimental data are taken from FIG. 4, curve labeled ‘UP’. The theoretic equations used are listed supra. The fitted parameters (fitting results) are listed at the right in FIG. 5. ‘Transit. T’ corresponds to Tₜ, but is expressed in degrees Celsius. The parameter ‘delta Cₚ’ was kept constant at 3.0 kJ mol⁻¹ K⁻¹. […]

Data set [2] concerns the molecule itself. In words: analytical sedimentation equilibrium ultracentrifugation, 25000 rpm, about 1 mg/ml; self-association of the peptide.

B1: peptide Ac-MSIEEIQKQQAAIQKQIAAIQKQIYRMTP-NH2 (reference artificial peptide of Example 3) (peptide)
peptide: Ac-MSIEEIQKQQAAIQKQIAAIQKQIYRMTP-NH2
notes: Synthetic designed coiled coil-forming peptide; also called said synthesized peptide
As to B1, in data set [1], the binding result is recorded as “binds”.

B2: Q2aI peptide Ac-MSIEEIQKQIAAIQKQIAAIQKQIYRMTP-NH2 (peptide)
peptide: Ac-MSIEEIQKQIAAIQKQIAAIQKQIYRMTP-NH2
notes: Synthetic designed coiled coil-forming peptide; also called all-isoleucine core peptide
As to B2, the binding result in data set [2] is recorded as “binds”.
